Article PMC11211068 (The Journal of Experimental Medicine, 2024)
Changes are numbered by the printed parent chain.

Columns and labels:
[1] = target: T1, H1 HA from A/Michigan/45/2015 H1N1, recombinant (Immune Technology) (Influenza A virus A/Michigan/45/2015 …, UniProt A0A1J0CXU0, strain); assay: ELISA
[2] = target: H1 HA from A/Brisbane/59/2007 H1N1, recombinant (IRR FR-65) (Influenza A virus A/Brisbane/59/2007 …, UniProt D5F1Q8, strain); assay: ELISA
[3] = target: H1 HA from A/Solomon Islands/3/2006 H1N1, recombinant (IRR FR-67) (Influenza A virus A/Solomon …, UniProt A7Y8I1, strain); assay: ELISA
[4] = target: H1 HA from A/California/04/2009 H1N1pdm09, recombinant (Immune Technology) (Influenza A virus A/California/04/2009 …, UniProt C3W5S1, strain); assay: ELISA
[5] = target: H1 HA from A/Norway/3206-3/2009 H1N1, recombinant (IRR FR-697) (Influenza A virus A/Norway/3206-3/2009 …, UniProt C3W5S1, strain); assay: ELISA
[6] = target: T1, H1 HA from A/Michigan/45/2015 H1N1, …; assay: BLI

Measured: binding result

B1: 05.GC.w2.3C10 (antibody, V domains shown)
VH: EVQLVQSGAEVKKPGSSVRVSCKASGGTFSAISWVRQAPGQGLEWMGGIIPVFGTANYAQKFQGRVTITADDSTSTAYMEVSSLRSDDTAVYYCAREETWKGATIGVMGIWGQGTMVTVSS
VL: DIQMTQSPSSLSASVGDRVTITCRASQSISSYLNWYQHKPGKAPKLLIFTASNLQSGVPSRFSGGGSGTDFTLTISSLQPEDFATYYCQQSYTSPRTFGQGTKVEIK
binds: [1] | [2] | [3]

B2: 05.GC.w13.02 (antibody, V domains shown)
VH: QVQLVQSGTEVKKPGSSVKVSCKASGVTFSSYAMSWVRQAPGQGLEWMGGFIPILGTANYAQKFQGRLTITADGLTGTVYMELSRLRSEDTAVYYCAREVTWKGASIGVLGIWGQGTMVSVSA
VL: DIQMTQSPSSLSASVGDRVIITCRANQSIGGYLNWYQQKPGKAPNLLIFTASTLQSGVPSRFSGGGSGTDFTLTISSLQPEDFATYYCQQNYNTPRTFGQGTKVDIK
not listed: [6]
binds: all other assays above

B3: 05.GC.w13.02 Fab, His6 tag removed with thrombin (Fab, V domains shown)
VH: B2 VH
VL: B2 VL
binds: [6]

B4: 05.GC.w13.01 (antibody, V domains shown)
VH: QVQLVQSGAEVKKPGSSVKVSCEASGVTFSSYAVSWVRQAPGQGLEWMGGIIPIVGTANYAQKFQGRVTITADGLTSTVYMELSRLRSEDTAVYFCAREATWKGSSIGVLGIWGQGTMVTVSA
VL: B2 VL with I20T, N26S, G30S, G31D, N45S, T50S, G65S, D105E
not listed: [6]
binds: all other assays above
